Reference: article PMC10611751, “Dynamic interactions between E-cadherin and Ankyrin-G mediate epithelial cell polarity maintenance” (Nature Communications, 2023)
Values joined by “and” are separate entries in the source; they are usually repeats but may differ in a detail not shown here. Equal entries are not always repeated.

T1: full-length β-catenin 1-781 (mouse, UniProt Q02248 1-781)
T1 construct: also called β-catenin FL; source: E. coli BL21 (DE3), purified (Ni-NTA, SEC)
T1 sequence (looked up): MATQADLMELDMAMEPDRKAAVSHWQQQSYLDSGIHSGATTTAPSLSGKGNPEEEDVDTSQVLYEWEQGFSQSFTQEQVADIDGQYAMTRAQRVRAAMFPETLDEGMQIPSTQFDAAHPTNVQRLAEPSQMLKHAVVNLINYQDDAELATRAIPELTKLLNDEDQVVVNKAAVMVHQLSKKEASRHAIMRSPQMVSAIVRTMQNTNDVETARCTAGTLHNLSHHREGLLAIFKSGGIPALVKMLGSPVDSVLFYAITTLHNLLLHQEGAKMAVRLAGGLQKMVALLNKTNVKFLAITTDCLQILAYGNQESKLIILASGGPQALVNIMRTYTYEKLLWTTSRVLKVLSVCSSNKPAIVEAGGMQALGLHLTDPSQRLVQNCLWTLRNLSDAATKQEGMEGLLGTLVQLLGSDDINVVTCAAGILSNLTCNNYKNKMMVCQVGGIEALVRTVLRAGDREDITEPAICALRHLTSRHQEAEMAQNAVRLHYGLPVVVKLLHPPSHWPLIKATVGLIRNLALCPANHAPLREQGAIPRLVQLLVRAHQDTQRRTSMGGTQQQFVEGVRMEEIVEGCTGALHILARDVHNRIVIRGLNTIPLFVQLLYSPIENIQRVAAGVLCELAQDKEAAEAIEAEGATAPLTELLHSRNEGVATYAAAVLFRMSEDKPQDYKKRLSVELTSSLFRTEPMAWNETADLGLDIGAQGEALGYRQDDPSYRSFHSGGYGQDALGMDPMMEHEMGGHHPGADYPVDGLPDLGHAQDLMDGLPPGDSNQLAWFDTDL

B1: E-cadherin C-terminal domain (residues 734-884) (domain or fragment)
chain: not shown
notes: The ITC methods name 'Trx-E-cadherin'; 15N-labelled for the HSQC titration; also called E-cadherin CTD; CTD; source: E. coli BL21 (DE3), purified (Ni-NTA, SEC); not shown: Trx, N-terminal, kept; His6, N-terminal, kept
B2: Ankyrin-G 24 ANK repeats (residues 38-855) (domain or fragment, UniProt O70511 38-855, looked up)
chain: KSDANASYLRAARAGHLEKALDYIKNGVDVNICNQNGLNALHLASKEGHVEVVSELLQREANVDAATKKGNTALHIASLAGQAEVVKVLVTNGANVNAQSQNGFTPLYMAAQENHLEVVRFLLDNGASQSLATEDGFTPLAVALQQGHDQVVSLLLENDTKGKVRLPALHIAARKDDTKAAALLLQNDTNADIESKMVVNRATESGFTPLHIAAHYGNINVATLLLNRAAAVDFTARNDITPLHVASKRGNANMVKLLLDRGAKIDAKTRDGLTPLHCGARSGHEQVVEMLLDRAAPILSKTKNGLSPLHMATQGDHLNCVQLLLQHNVPVDDVTNDYLTALHVAAHCGHYKVAKVLLDKKANPNAKALNGFTPLHIACKKNRIRVMELLLKHGASIQAVTESGLTPIHVAAFMGHVNIVSQLMHHGASPNTTNVRGETALHMAARSGQAEVVRYLVQDGAQVEAKAKDDQTPLHISARLGKADIVQQLLQQGASPNAATTSGYTPLHLSAREGHEDVAAFLLDHGASLSITTKKGFTPLHVAAKYGKLEVASLLLQKSASPDAAGKSGLTPLHVAAHYDNQKVALLLLDQGASPHAAAKNGYTPLHIAAKKNQMDIATSLLEYGADANAVTRQGIASVHLAAQEGHVDMVSLLLSRNANVNLSNKSGLTPLHLAAQEDRVNVAEVLVNQGAHVDAQTKMGYTPLHVGCHYGNIKIVNFLLQHSAKVNAKTKNGYTPLHQAAQQGHTHIINVLLQNNASPNELTVNGNTALAIARRLGYISVVDTLKVVTEEIMTTTTITEKHKMNVPETMNEVLDMS
notes: Ankyrin-G, 24 ANK repeats, residues 38-855; The ITC methods name 'Trx-AnkG R1-24'; also called AnkG R1-24; AnkG ANK repeats; source: E. coli BL21 (DE3), purified (Ni-NTA, SEC); not shown: Trx, N-terminal, kept; His6, N-terminal, kept

Key:
Settings in all cases: both partners purified
[1] = biological target: B2; assay: ITC; E-cadherin proteins in the syringe (e.g. 200 μM Trx-E-cadherin) titrated into AnkG in the cell (e.g. 20 μM Trx-AnkG R1-24); 25 °C; 50 mM Tris, 100 mM NaCl, 1 mM EDTA, 1 mM DTT, pH 7.8; one-site binding model
[2] = biological target: T1, full-length β-catenin 1-781; assay: SEC-MALS; analytical gel filtration with static light scattering; AnkG R1-24, E-cadherin CTD and β-catenin 1-781 mixed at 1:1:1, 2:1:1, 3:1:1 and 4:1:1 molar ratios; also E-cadherin CTD with β-catenin 1-781 alone
[3] = biological target: B2; assay: SEC-MALS; FPLC coupled with static light scattering; 70 μM E-cadherin with 70, 140, 210 or 280 μM AnkG (molar ratios 1:1 to 1:4); Superdex 200 increase; 50 mM Tris, 100 mM NaCl, 1 mM EDTA, 1 mM DTT, pH 7.8
[4] = biological target: T2, E-cadherin CTD–β-catenin complex (mouse, UniProt P09803 734-884; Q02248 1-781); assay: SEC-MALS; analytical gel filtration with static light scattering; AnkG R1-24, E-cadherin CTD and β-catenin 1-781 mixed at 1:1:1, 2:1:1, 3:1:1 and 4:1:1 molar ratios; also E-cadherin CTD with β-catenin 1-781 alone
T2 construct: Formed beforehand for the ITC titration to AnkG R1-24; in the light scattering experiment the three proteins were mixed together; source: E. coli BL21 (DE3), purified (Ni-NTA, SEC)
T2 sequence (P09803 734-884, one chain of several): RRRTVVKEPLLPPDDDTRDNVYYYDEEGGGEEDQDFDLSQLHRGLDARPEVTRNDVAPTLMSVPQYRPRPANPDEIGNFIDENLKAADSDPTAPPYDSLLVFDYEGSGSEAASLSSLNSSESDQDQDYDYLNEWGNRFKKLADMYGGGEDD

[5] = biological target: B1; assay: SEC-MALS; FPLC coupled with static light scattering; 70 μM E-cadherin with 70, 140, 210 or 280 μM AnkG (molar ratios 1:1 to 1:4); Superdex 200 increase; 50 mM Tris, 100 mM NaCl, 1 mM EDTA, 1 mM DTT, pH 7.8

Binder	Kd [1] [µM]	other results
B1	~1.3	stoichiometry N [1]: ~0.22; binding result [2]: binds
E-cadherin 828-884 (including both site-2 and site-3) (domain or fragment, source: E. coli BL21 (DE3), purified (Ni-NTA, SEC); not shown: Trx, N-terminal, kept; His6, N-terminal, kept) not shown	~1.9	stoichiometry N [3]: 1
PYDSLLVFDYEGSGS (domain or fragment, mouse, UniProt P09803 828-842, looked up, For the methyl-TROSY NMR fused to the N-terminus of AnkG R8-24; also called E-cadherin site-2; source: E. coli BL21 (DE3), purified (Ni-NTA, SEC); not shown: Trx, N-terminal, kept; His6, N-terminal, kept) [E-cadherin residues 828-842 (site-2)]	~1.9	
ESDQDQDYDYLNEWGN (domain or fragment, mouse, UniProt P09803 854-869, looked up, E-cadherin, mouse, residues 854-869; also called E-cadherin site-3; source: E. coli BL21 (DE3), purified (Ni-NTA, SEC); not shown: Trx, N-terminal, kept; His6, N-terminal, kept) [E-cadherin residues 854-869 (site-3)]	~1.8	
B2		stoichiometry N [4]: 1 to 2 AnkG R1-24 per E-cadherin CTD and β-catenin; stoichiometry N [5]: 1 AnkG R1-24 per E-cadherin CTD and 2 AnkG R1-24 per E-cadherin CTD
YYYDEEGGGEEDQDFD (domain or fragment, mouse, UniProt P09803 755-770, looked up, E-cadherin, mouse, residues 755-770; also called E-cadherin site-1; source: E. coli BL21 (DE3), purified (Ni-NTA, SEC); not shown: Trx, N-terminal, kept; His6, N-terminal, kept) [E-cadherin residues 755-770 (site-1)]	~0.9	
